PMC2718698, “The TCL1A Oncoprotein Interacts Directly with the NF-κB Inhibitor IκB” (PLoS ONE, 2009)

How the values were obtained:
[1] = target: all-cysteine-to-serine (7CS) mutant of the IκBα ankyrin domain, IκB(67–302)7CS (human) (UniProt P25963); experiment: ITC; TCL1A (470 µM) injected into IκB_ank^7CS (45 µM) in the cell; 20°C; 10 mM Tris pH 7.4, 300 mM NaCl, 1 mM β-mercapto ethanol
[2] = target: 1:1 TCL1A:IκB_ank^7CS complex (human) (UniProt P56279); experiment: ITC; AKT_PH (490 µM) injected into TCL1A (40 µM) or into equimolar TCL1A and IκB_ank^7CS in the cell; 20°C; 20 mM sodium phosphate pH 7.1, 300 mM NaCl, 2 mM EGTA, 1 mM β-mercapto ethanol
[3] = target: T1, T cell leukaemia/lymphoma 1A (TCL1A), purified recombinant human protein (human, UniProt P56279 1-114); experiment: as above; settings: both partners purified
T1 construct: TCL1A, human; 7 N-terminal residues are not seen in the crystal structure 1JSG
T1 sequence (P56279 whole entry): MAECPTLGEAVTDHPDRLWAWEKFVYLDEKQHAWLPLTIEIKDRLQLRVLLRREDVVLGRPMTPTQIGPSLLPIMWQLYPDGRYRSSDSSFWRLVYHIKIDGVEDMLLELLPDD

Chain of T cell leukaemia/lymphoma 1A (TCL1A), purified recombinant human protein (from UniProt P56279 1-114) (natural protein) (P56279 whole entry): as above

Molecule	dH [1] [kcal/mol]	stoichiometry N [1]	Kd [2] [µM]	dH [2] [kcal/mol]	stoichiometry N [2]	dH [3] [kcal/mol]	stoichiometry N [3]
T cell leukaemia/lymphoma 1A (TCL1A), purified recombinant human protein (from UniProt P56279 1-114) (natural protein)	-12.7	0.9					
AKTβ PH domain, human AKTβ PH(1–118) (domain or fragment, UniProt P31751 1-118, looked up) MNEVSVIKEGWLHKRGEYIKTWRPRYFLLKSDGSFIGYKERPEAPDQTLPPLNNFSVAECQLMKTERPRPNTFVIRCLQWTTVIERTFHVDSPDEREEWMRAIQMVANSLKQRAPGED			5.1	-9.32	0.7	-14.6 ± 0.598	0.7 ± 0.3
